The series can be described thus: soluble on expression in E. coli; label from the status in PepcDB or PDB records.
In the case of “MRVEKAWFLADGAEAPEGLPEGGFREVALPHQWSLEGVEAEVGWYRLALPEAGPRRFLLSFGDYYQEAWLDGTYLGRHEGYFFPWVLELPKGKELFLRVSAPKEPLGVWPRFKRQIKGVFGQHDCRPGGTTARGQERGTGGLWGGVEVWAREEVALLGLAHRLFPRAGGWRLWVRLLVDAQRPFRERARLFLVPANFPGEALEREAVLEGEAGRAWREVVWDLPEMPLWEVWERGFPHLFRLEADLLGARLGVPLGFRTVEVDGEGWLLLNGKRLFLRGTNAIPTQWLAAYSEAMAQKDVALLKEANLNAVRVHAHVTHPAFYAACDREGVLVWQDFPLQWGYAPDEAFAQEALRQARAMVEVLGAHPSVYLWCAQNEPTHNRHALGPLLAAALRAADPTRPVKEASDFREHPYPGWYRGHYRDFLALPGAPLPSEFGAQALPRAELLRRVLGEAAWPPRWEVWAYHNFQPHETFRVARVEMGESLEEFVERSQDYQARLIEFAVHAYRRAKGKVVGYFQFMFVEPWEGITWAVLDVERVPKKGFFALKEASSPVLLSLVPYRERVEVGGPPCRRPGS”, the “soluble on expression in E. coli” value is recorded as “soluble”. With “GPSRVVYLGSIPYDQTEEQILDLCSNVGPVINLKMMFDPQTGRSKGYAFIEFRDLESSASAVRNLNGYQLGSRFLKCGYSSNSDISGVSQQQQQQYN”, the “soluble on expression in E. coli” value is “soluble”. As for “MSLKICVIGSSGHFRYALEGLDEECSITGIAPGVPEEDLSKLEKAISEMNIKPKKYNNWWEMLEKEKPDILVINTVFSLNGKILLEALERKIHAFVEKPIATTFEDLEKIRSVYQKVRNEVFFTAMFGIRYRPHFLTAKKLVSEGAVGEIRLVNTQKSYKLGQRPDFYKKRETYGGTIPWVGIHAIDWIHWITGKKFLSVYATHSRLHNSGHGELETTALCHFTLENEVFASLSIDYLRPQGAPTHDDDRMRIVGTRGIVEVINERVFLTDEKGHREVPLVEKGQIFEDFLREIRGQGKCMVTPEDSILTTEIALKARLSADTGQIVLIEGHHHHHH”, the entry is “soluble”.

In the case of “MAHHHHHHMIRRKLYCSFLFLAILETFKVNQRWSIFISAWYAHEDVDSDYSHSKLYEVLGVHKYATTEEIKKAYRKLSKKYHPDKAKDKNSNNRFNEIAEAYEILGDEEKRKVYDHHGLEAAKNVESNKMDEDPTDHFNIYESFFGGAGGFRREEMKKADSLTLNVEMSLEQLYNGDFFSVIYTRDVNCLRSDDCIMKKKECSGKGYKTVTQQVAPGFIMQNKMRDENCIDRGKAWNPKCSYCPNGMKEEKTIELTLEVEKGMKNNDKIVFEKKGKQEIGYESGDVIFVIQTKKHKVYERKNNDLHQFYEISLKDALIGFSKDIDHISGAPIRINKQTVTFHNEILKVQNKGMPIRDSSKYGDLYIKFLVQFPKYLTEEQKRAISQFL”, the “soluble on expression in E. coli” value is “not soluble”. As for “MAHHHHHHMTGWRQIVRCSICHLNRCAYPVTPALTDLKHLKHMWTLHGEAAPTADKQCLLLALAAEAGEQLAELNSRQAAAQAKAKEAQLAIAKHLGMLEMAVEASSYKIVDSTTPVNADSSANTAKLSLKIARGNNAGCSLTKAGEGNPFADDPLNEQNILNLKLTAATDVVKSLKETAISIRSASSNCPSDSTGKTGIKEALGSCNLGGSAEYEFTTAAATTGNAQSSVPVFKEESTTTNCGEVSGLSAEAMSPAQKLAKAICEAIKAKAGEGKTLRTATGETLSNRKTIQTFLRNCVPEFQKKN”, the entry is “not soluble”; as for “GALGVVDEVHAGKEIGLQIYSLSQELYKGDVAANLRKVKDMGYSKLELAGYGKGAIGGVPMMDFKKMAEDAGLKIISSHVNPVDTSISDPFKAMIFKYSKEVTPKIMEYWKATAADHAKLGCKYLIQPMMPTITTHDEAKLVCDIFNQASDVIKAEGIATGFGYHNHNMEFNRVATKEQQEKVKGNPFAAFMKVGDQIYDLMLKDTDPSKVYFEMDVYWTVMGQNDPVEYMQKHPDRIKVLHIKDRAVFGQSGMMNFEMIFKQMYANGIKDYFVELEQMPDGRTQFAGVKDCADYLIKAPFVK”, “soluble”. Turning to “MVEKELEEKVYKSIIKTIKDTPLEEFYTSGHRTCQGCESALVMRFLAKAAGPRTIVIGATGCMYVANTTYYTTSWIVPWVHTQLGGTGAAALGTAAALRALMRKGKIKQEPINVIAFCGDLGCADMGLSGVSNAMTYDYNLLIILYDNESSANTDIQETSMTPFGAQTSFSRPGKQRRIMKKRWKKSVVPMIIAGHRNVRYAATMTPAYPLDSMNKIRKALTIGGPTFIHSLDPCPKGWDYDPKFSHELGVLAVETGLWPLYEYIDGEIVYNEPTKSIVEGRMKRKPVKEYLEKQGRFSHFTEEDIEYVQRMVDEMYEEWEIPGVMPIKSINAKISDK”, the “soluble on expression in E. coli” value is “not soluble”. As for “MSTPRTVLVVGGGAAGNAVTILLRRAGLTVDLVEAKDDWNATAGSGITLQGNALRVLRELGVWEQVEASGFGFGSVGITTPDGTVLHVQDDLRTGGDDLPATVGMQRPRLQQILIEAVRASGASVRLGTTAEILDQDSDGVHVRLSDGSEHRYDLVVAADGLGSATRAAIGITDKPEPTGMAIWRIAAPRPAGLTRTDLAYGGPAHIAGYCPTGETTLYAYVVEANRDRAGIPPASYADEMRGLTRHYGGFWPDITEHITDPAKVNYTWFDRLLVEGSWHRGRVVLVGDAAHCCPPTLAQGAALSLEDAWVLAQMLTGSDVWDDALFQAYYERRIARVRPVVAASVQIGQWQLDGVRDADLPGLMGRTMTMLRELPLEHHHHHH”, the entry is “not soluble”; as for “MIFERIKSEGLAHLSYFVGSGNEAIVIDPRRDCQIYFDIARREGMKIKYIFETHRNEDYVIGSLELKELTDAEIYHGKGVDFKYGIFVSDGQEFNFGSMKLTALHTPGHTDESMSYALTYPESGKAPLMVFTGDALFVGDVGRTDLYGPEEIPRMAANLYESIFNKILPLGDGVILCPAHGAGSLCGGAISKREYSTLGLERIQNPALQRTDKEEFIKFKLEEKLEFPPYFKKMEQYNLQGPPLLKGLPVPELLFPKEFVKEMEKGAMVVDTRMPHSFGGAHIKGSYGIWLKGLPYYAGWVLPYDKPILLVLEEKDQLETAVSYLVRIGYDSIAGFLNGGISSWYMKALPVESLNLISVQSLKDKIEKNEEMVILDVRRDEEWEKGHIEGARHVYVGHLEENLDKVPRNSPIIVYCDSSRRSNIAASILKKKGYDMVYNVLGSMTAWKNAGYKVVKLEHHHHHH”, “soluble”; as for “MGSDKIHHHHHHMVSPVVARIIELLPDSCVGFIGKRILNMYLNKYADINVHGMENLKGIDKPIMFIGNHLSNSDGLVLNKVLKDYDVTFVAGVKLKGDAITNLGTYCVKTTEIKPNTADKDGIYRVIDILKSNHNILMFPEGTRSRTGAMIEAKRGPLFIAKLSKAIIVPVGICGSEKLLPINKEGNMSNENFHHAKVEVNIGKPFYFDKRMKEESKKDYEKRALDNAMYKIAELIPENYRGVYSDIKKVL”, “not soluble”. With “MRTLLDLDPKGKRVLVRVDYNVPVQDGKVQDETRILESLPTLRHLLAGGASLVLLSHLGRPKGPDPKYSLAPVGEALRAHLPEARFAPFPPGSEEARREAEALRPGEVLLLENVRFEPGEEKNDPELSARYARLGEAFVLDAFGSAHRAHASVVGVARLLPAYAGFLMEKEVRALSRLLKDPERPYAVVLGGAKVSDKIGVIESLLPRIDRLLIGGAMAFTFLKALGGEVGRSLVEEDRLDLAKDLLGRAEALGVRVYLPEDVVAAERIEAGVETRVFPARAIPVPYMGLDIGPKTREAFARALEGARTVFWNGPMGVFEVPPFDEGTLAVGQAIAALEGAFTVVGGGDSVAAVNRLGLKERFGHVSTGGGASLEFLEKGTLPGLEVLEG”, the “soluble on expression in E. coli” value was “soluble”.

On to “MAHHHHHHMATPKQKETICEAAIVGFSFNKDRTEAVFSPNNHLLYIVSCKDIKDCSTWEIYATLEHHDQSVSATAWHGSTNRILSCSQDRTAFVWQRNAKGKWKPQMVMLDAGVKRGLTSCAWNHSGSKIYVGSAASNIAVGRFDAENEWWICRLLEGHTSTVTALAPHPSDDTLLLSGGTDGRLMLISTFMKKLDGKKSSSFGHVYLEKCFGAWVHAIAWAPSGQRFAVATHDSRVHVFDIPSVDNLSESIDEGLAIYSVSLAILPLKSLAFVLEDHLVGGGFDYFPALFQPSKKGTGWTMSGKWTMTRVKGAKTAQQIAREKFQNEARIGQAELLEEEQTRHKNTINGVLTLIDDGAAFKSAMEGPVFATASLDGRVEVWTIRDMIPII”, for which the “soluble on expression in E. coli” value is recorded as “not soluble”. As for “GEEDLCAAFNVICDNVGKDWRRLARQLKVSDTKIDSIEDRYPRNLTERVRESLRIWKNTEKENATVAHLVGALRSCQMNLVADLVQEVQQARDLQNRSGAMSPMSWNSDASTSEASHHHHHH”, the “soluble on expression in E. coli” value was “soluble”. As for “TTNWLNYRAGSVAYEQAAEPLELLTEARIHAQRARTDETLALVWRQSLENSNHTFSTTLKRVDKALSKPGLDPAEVAAARNAMNTWRASHEELTNFLNSGRYEEALKLTTEGPSAFTDLDAALDSLIDSTRVRLRTEIRGVDTTQVN”, the entry is “not soluble”.

For the sequence “MMITRELVLKANREQPPYASILALAASGFSLEKSVQFSEKQQLALNLDGELLSNDVEIARIIAQSTDAADSLLGSSIIDFAVVDDLTNFIADAVTKNDYSLLLGKDFPTKILDNSLTVADFAIFSVAHNNPQLKAKFSGIIDKVLKEPTLAAAHNFVGLYKSAAAPTATASTGKEKKKDEGKFVELPGAEKGKVVVRFPPEASGYLHIGHAKAALLNQYYQQAFEGQLIMRFDDTNPAKENAHFEHVIKEDLSMLNIVPDRWTHSSDHFEMLLTMCEKLLKEGKAFVDDTDTETMRNEREQRQDSRNRSNTPEKNLQLWEEMKKGSPKGLTCCVRMKIDMKSNNGAMRDPTIYRCKPEEHVRTGLKYKVYPTYDFTCPIVDSVEGVTHALRTTEYHDRDDQYYFICDALGLRRPHIWEYARLNMTNTVMSKRKLTWFVDEGHVEGWDDPRLPTVRGVMRRGLTVEGLKQFIVAQGGSRSVVMMEWDKIWAFNKKVIDPVAPRYTALDSTSPLVSIELTDSISDDTSNVSLHPKNAEIGSKDVHKGKKLLLEQVDAAALKEGEIVTFVNWGNIKIGKIEKKGAVITKISATLQLDNTDYKKTTKVTWLGDVKAEAGKTIPVVTADYDHIISKAIIGKDEDWKQFINFDSVHYTKMVGEPAIKNVKKGDIIQIQRKGFYIVDQPYNPKSELSGVETPLLLIAIPDGHTGKEAEKPPKGAPVSAAASSGGSDALQLYNSIEQQGGIVRDLKTKDAKSQATKDAIAKLLDLKKKYKELTGSDHKPGAPPSAPAPTTPSSSESNSALNIYNLIEAQGLLVRELKGKDAKSQATKDAIAKLLELKKQYKEVSGSDHKPGVPPAASVASAPAPAPAAGSTNALDIYHQIESQGALVRELKGKDAKSQATKDAIAKLLALKKQYKEVTGSDHKPGVVPVSAPAPTPLAGGADIAGQIEAQGVLVRDLKNKDSKSQETKDAIAKLLELKKNYKEVTGSDYKPGPAPAAAPAKVTVPAPSVSGGDTLSKQIDDQALLVRELKMKDAKSQETKDAIAKLLQLKKQYKDATGSDYKPAPAQLAASAAAAPAPAPAFDEAALLKEIEEQGAVVRDAKSKDPKSQDSADAINKLLALKANFKKATGKDFPAPSNAQSKKGKKK”, the “soluble on expression in E. coli” value was “not soluble”. As for “MGSDKIHHHHHHMKKVVVGLSGGVDSSTAAAILHNQGYEVIGLTLWLMKGKGQCCSEGMIDAAYICEQLGIPHEVVDMRDVFQTHIVDYLVTGYGAGITPLPCSQCNKTVKFGPMVQYAREQLGCDRIATGHYARISYDEASGRYQLLRAVDRNKDQSYFLYDLSQDLLAASLFPLGEMEKADTRRIATEHGLKTADKPESQDLCLVESNGSMRAFLDKYIAPKKGDIVDTAGKILGQHDGVHHYTIGQRKGLGIAAPEPLYVVELDAVNNKVVVGDRTKATQEECTVSRVNWVSIPEPSTPIRAAVQIRYRSAPEPVTVIPLENSRVRLVFDEPQFSITPGQAAVWYDGDKVLGGGIIEQFSN”, the entry is “not soluble”.

For the origin of these results see the DeepSol protein solubility set.
